Data published in US20170240920A1.

Target: RQR8
Test: cell-based or functional assay

“clinical grade human-rituximab (antibody)” showed an eGFP positive cells in the sorted fraction (K562 cells, human rituximab on protein-A beads) of 89.4%, a transduced target cells with LV sorted with beads (RDpro pseudotyped LV) of 14.1% and a transduced target cells with the purified fraction (VSV-G pseudotyped LV) of 73.6%.
